Data on 3 molecules can be found in patent US20230348587A1 (Astellas, published 2023).

Assay [1] addresses T1, human TSPAN8-Myc-DDK expressed on CHO-K1 cell (human).
T1 construct: also called TSPAN8 (Myc-DDK-tagged)-Human tetraspanin 8 (ORIGENE, RC202694)
T1 chain: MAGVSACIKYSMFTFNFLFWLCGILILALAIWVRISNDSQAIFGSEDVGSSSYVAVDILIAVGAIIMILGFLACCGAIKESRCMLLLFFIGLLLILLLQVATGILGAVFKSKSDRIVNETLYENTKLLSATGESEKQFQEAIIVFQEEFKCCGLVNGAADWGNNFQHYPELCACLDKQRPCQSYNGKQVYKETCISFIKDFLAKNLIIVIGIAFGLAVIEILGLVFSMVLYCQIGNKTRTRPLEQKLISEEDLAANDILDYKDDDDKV
Nature of the assay: binding to human TSPAN8-Myc-DDK expressed CHO-K1 cell. The protocol:
For further specifying an antigen, an experiment of binding to a human TSPAN8-Myc-DDK expressed CHO-K1 cell was performed. The human TSPAN8-Myc-DDK expressed CHO-K1 cell was produced by transfecting TSPAN8 (Myc-DDK-tagged)-Human tetraspanin 8 (TSPAN8) (ORIGENE, RC202694) (SEQ ID NO: 2) into a CHO-K1 cell. As a result, it was confirmed that ten antibodies of 16B11, 16B12, 5B7, 9F6, 12C12, 13A9, 15D1, 18C10, 19E4 and 21F7 (referred to also as the “ten anti-TSPAN8 antibodies”) bound to the human TSPAN8-Myc-DDK expressed CHO-K1 cell, and recognize TSPAN8 as an antigen.

The target in assay [2] is T2, human mouse TSPAN8-GFP chimeric protein on CHO-K1 cell (human; mouse) (UniProt P19075).
T2 sequence: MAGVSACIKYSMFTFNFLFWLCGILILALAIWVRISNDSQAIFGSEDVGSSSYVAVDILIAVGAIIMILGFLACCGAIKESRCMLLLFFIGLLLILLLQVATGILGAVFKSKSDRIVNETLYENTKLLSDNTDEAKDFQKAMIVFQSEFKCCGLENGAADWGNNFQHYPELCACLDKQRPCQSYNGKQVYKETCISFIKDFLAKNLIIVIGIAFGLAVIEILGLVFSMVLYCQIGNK
As to the kind of experiment: flow cytometry on GFP-positive CHO-K1 cells; MFI minus MFI on mock cell.

In assay [3] the target is T3, human TSPAN8-GFP protein on wild-type human TSPAN8 expressing CHO-K1 cell (human, UniProt P19075 1-237).
T3 construct: whole, on cells; Transiently expressed; GFP-positive cells were analysed; also called Human TSPAN8 (Wild type); not shown: GFP of the pCMV6-AC-GFP vector (ORIGENE, PS100010)
T3 chain: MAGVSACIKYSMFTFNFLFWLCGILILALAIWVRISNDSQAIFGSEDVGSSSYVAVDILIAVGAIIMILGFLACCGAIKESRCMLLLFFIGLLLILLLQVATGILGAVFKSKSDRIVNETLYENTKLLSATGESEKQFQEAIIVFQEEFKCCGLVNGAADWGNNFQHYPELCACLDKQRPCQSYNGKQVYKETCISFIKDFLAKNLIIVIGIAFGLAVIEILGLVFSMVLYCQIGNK
Described as above.

The target in assay [4] is T4, human rat TSPAN8-GFP chimeric protein on CHO-K1 cell (human; rat, UniProt P19075 156-237).
T4 construct: range 156-237; whole protein on cells; also called Human rat chimeric TSPAN8; human rat TSPAN8 chimeric protein; not shown: GFP of the pCMV6-AC-GFP vector (ORIGENE, PS100010)
T4 sequence: T2 sequence with D130E, N131T, T132S, D133N, D137E, F138V, V144A, E155R
Described as above.

Assay [5] has as its target T5, human TSPAN8(T131A)-GFP on CHO-K1 cell (human, UniProt P19075 1-237).
T5 construct: whole, on cells; Transiently expressed; GFP-positive cells were analysed; also called T131A mutant; not shown: GFP of the pCMV6-AC-GFP vector (ORIGENE, PS100010)
T5 sequence (looked up): T3 chain with T131A
Described as above.

The target in assay [6] is T6, human TSPAN8(T131N)-GFP on CHO-K1 cell (human, UniProt P19075 1-237).
T6 construct: whole, on cells; Transiently expressed; GFP-positive cells were analysed; also called T131N mutant; not shown: GFP of the pCMV6-AC-GFP vector (ORIGENE, PS100010)
T6 sequence (looked up): T3 chain with T131N
Described as above.

Assay [7] concerns the target T2, human mouse TSPAN8-GFP chimeric protein on CHO-K1 cell (human; mouse). Nature of the assay: flow cytometry on GFP-positive CHO-K1 cells; against wild-type human TSPAN8 expressing CHO-K1 cell.
Assay [8] addresses T4, human rat TSPAN8-GFP chimeric protein …. Described as above. The source says:
(§1) Each vector produced was introduced into the CHO-K1 cell, to produce a cell transiently expressing a human TSPAN8-GFP protein, a human mouse TSPAN8-GFP chimeric protein or a human rat TSPAN8-GFP chimeric protein. The cell produced will be referred to as a wild-type human TSPAN8 expressing CHO-K1 cell, a human mouse TSPAN8 chimeric protein expressing CHO-K1 cell or a human rat TSPAN8 chimeric protein expressing CHO-K1 cell. Further, a cell in which a pCMV6-AC-GFP vector was introduced into a CHO-K1 cell (referred to as a mock cell) was produced. The bindings of 16B11, 16B12 and TAL69 to GFP-positive cells in these cells were measured by flow cytometry. No decrease in binding of TAL69 was observed either to the human rat or human mouse TSPAN8 chimeric protein expressing CHO-K1 cell. […] Meanwhile, the binding to the human mouse TSPAN8 chimeric protein expressing CHO-K1 cell attenuated as compared with that to the wild-type human TSPAN8 expressing CHO-K1 cell (FIGS. 5-1).
(§2) Further, in order to check whether or not the amino acid at position 131 of human TSPAN8 contributed to the binding of 16B11 or 16B12, a substitute of the amino acid was produced. Specifically, a vector containing a nucleotide sequence encoding a human TSPAN8-GFP fusion protein in which threonine (T) at position 131 of the amino acid sequence of human TSPAN8 in human TSPAN8-GFP of SEQ ID NO: 2 was replaced with alanine (A) or asparagine (N) (respectively referred to as “human TSPAN8(T131A)-GFP” or “human TSPAN8(T131N)-GFP”) was produced, and such a vector was transfected into the CHO-K1 cell, to construct a cell transiently expressing human TSPAN8(T131A)-GFP or human TSPAN8(T131N)-GFP. The cell constructed will be referred to as a human TSPAN8(T131A) expressing CHO-K1 cell or a human TSPAN8(T131N) expressing CHO-K1 cell. The bindings of 16B11, 16B12 and TAL69 to GFP-positive cells in these cells were measured by flow cytometry (FIGS. 5-3). As a result, the bindings of 16B11 and 16B12 to the human TSPAN8(T131A) expressing CHO-K1 cell and the human TSPAN8(T131N) expressing CHO-K1 cell attenuated as compared with the bindings to the wild-type human TSPAN8 expressing CHO-K1 cell.

The target of assay [9] is T5, human TSPAN8(T131A)-GFP on CHO-K1 cell. The assay is described as above.
Source text: as §1, §2

The target in assay [10] is T6, human TSPAN8(T131N)-GFP on CHO-K1 cell. The description is as above.
Source text: as §1, §2

The target in assay [11] is T7, human mouse TSPAN8-GFP chimeric protein on CHO-K1 cell (human; mouse, UniProt P19075 156-237).
T7 construct: range 156-237; whole protein on cells; also called Human mouse chimeric TSPAN8; human mouse TSPAN8 chimeric protein; not shown: GFP of the pCMV6-AC-GFP vector (ORIGENE, PS100010)
T7 sequence: T2 sequence
As to the kind of experiment: flow cytometry on GFP-positive CHO-K1 cells; MFI minus MFI on mock cell.

For assay [12], the target named is T7, human mouse TSPAN8-GFP chimeric protein …. Nature of the assay: flow cytometry on GFP-positive CHO-K1 cells; against wild-type human TSPAN8 expressing CHO-K1 cell.
Source text: as §1, §2

Residue numbers refer to the chain shown, from its start.

B1: 16B11 (antibody, V domains shown)
VH: QVQLVESGGGVVQPGRSLRLSCAASGFTFSSYGMHWVRQAPGKGLEWVAVIWYDGRNKYYADSVKGRFTISRDNSKNTLYLQMNSLRAEDTAVYYCTRDHSGSGSYYIDYWGQGTLVTVSS
VL: EIAMTQSPATLSVSPGERATLSCRASQSVSSNLAWYQQKPGQAPRLLIYGASTRATGLPARFSGSGSGTEFTLTISSLQSEDFAVYYCQQYNNFWTFGQGTKVEIKR
notes: VelocImmune hybridoma antibody: human variable regions with mouse constant regions (chimeric); Used Alexa Fluor647-labeled in some assays; also called antibody 16B11; anti-TSPAN8 antibody 16B11
Consider B1, for which the binding result in assay [1] is recorded as “binds”. Also, the ΔMFI in assay [2] came to 5270; in assay [3] it was 173000; in assay [4], 161000; in assay [5] it was 23400; in assay [6], 3460. The ΔMFI relative value (relative (wild-type human TSPAN8 = 100)) stood at 3 in [7] and 2 in assay [10]. Moreover, the ΔMFI relative value in assay [8] is 93 relative (wild-type human TSPAN8 = 100); in [9] it was 14 relative (wild-type human TSPAN8 = 100).

B2: 16B12 (antibody, V domains shown)
VH: B1 VH with T28I, R56S, V93M, T97A, S101Y, S105T
VL: B1 VL with A3V, S28T, L58F, F94W
notes: VelocImmune hybridoma antibody: human variable regions with mouse constant regions (chimeric); also called antibody 16B12; anti-TSPAN8 antibody 16B12
For the molecule B2, the values for the ΔMFI in assay [4] and in [11] were 22400 and 102, respectively. For the same molecule, the ΔMFI relative value in [8] is 84 relative (wild-type human TSPAN8 = 100); in assay [12] it was 0 relative (wild-type human TSPAN8 = 100).

B3: Purified anti-human TSPAN8 Antibody (BioLegend, 362702 Clone TAL69) (antibody, V domains shown)
VH: EVKLLESGGGLVQPGGSMRLSCAASGFTFTDFYMNWIRQPAGKAPEWLGFIRNKASGYTTEYNPSVKGRFTISRDNTQNMLYLQMNTLRAEDTATYYCARAHSYYGYDYFDYWGQGVMVTVSS
VL: DIQMTQSPASLSASLEEIVTITCQASQDIGNWLSWYQQKPGKSPQLLIYGATSLADGVPSRFSGSRSGTQYSLKISRLQVEDIRIYYCLQAYSAPWTFGGGTKLELK
On to B3, for which the ΔMFI was determined as 133000 in assay [3]; 96200 in assay [4]; 305000 in assay [11]; 184000 in assay [5]; 143000 in assay [6]. Besides, the ΔMFI relative value was 72 relative (wild-type human TSPAN8 = 100) in assay [8], 230 relative (wild-type human TSPAN8 = 100) in assay [12], 139 relative (wild-type human TSPAN8 = 100) in assay [9] and 108 relative (wild-type human TSPAN8 = 100) in assay [10].
